These results are taken from US20110091467A1 (CENTRE FOR ADDICTION AND MENTAL HEALTH, published 2011).

To fix the notation:
B1: [35S]-methionine-labelled D2[IL3-2] probe (peptide)
chain: EAARRAQELEMEMLSSTSPPERTRYSPIPPSHHQLTLPDPSHHGLHSTPDSPAKPEKNGHAKDHPKIAKIFEIQTMPNGKTRTSLKTMSRRKLSQQKEKKATQ
modifications: [35S]-methionine-labelled
notes: also called [35S]-D2[IL3-2]

Assay [1] addresses B1. The assay is described as follows: conclusion from the peptide competition in the in vitro binding assay (GST-DAT[NT1] with [35S]-D2[IL3-2]).
Method: (§1) The beads were then washed 4-6 times with PBS containing 0.5% Triton X-100 and eluted with 10 mM glutathione elution buffer. Eluates were separated by SDS-PAGE and visualized by autoradiography.
In assay [2] the target is T1, GST fused DAT[NT3] (K35-D68) (UniProt P08515 1-218 = GST).
T1 construct: also called GST-DAT[NT3]
T1 sequence (P08515 1-218, tags or fused parts left off): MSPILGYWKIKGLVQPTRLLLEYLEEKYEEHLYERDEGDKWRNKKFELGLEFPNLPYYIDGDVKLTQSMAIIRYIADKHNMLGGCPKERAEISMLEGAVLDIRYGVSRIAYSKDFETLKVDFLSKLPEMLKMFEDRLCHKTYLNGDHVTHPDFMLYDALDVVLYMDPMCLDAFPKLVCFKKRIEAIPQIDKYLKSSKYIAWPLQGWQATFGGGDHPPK
The assay is described as follows: in vitro binding assay: GST fusion on glutathione beads with the [35S]-D2[IL3-2] probe, autoradiography.
Method: as §1

The target of assay [3] is T2, GST fused DAT[NT2] (A16-T43) (UniProt P08515 1-218 = GST).
T2 construct: also called GST-DAT[NT2]
T2 sequence (P08515 1-218, tags or fused parts left off): as above
The description is as above.
Method: as §1

Assay [4] has as its target T3, GST fused DAT[NT1] (M1-P26) (UniProt P08515 1-218 = GST).
T3 construct: also called GST-DAT[NT1]
The assay is described as follows: in vitro binding assay, FIG. 1G.
Method: as §1

T3 sequence (P08515 1-218, tags or fused parts left off): as above

Consider MSKSKCSVGLMSSVV (also called DAT[NT1-1] peptide) [purified DAT[NT1-1] (M1-V15) peptide], for which, in assay [1], the binding result is given as “binds”.

With B1, the binding result is reported as “no binding” in assay [2], “no binding” in assay [3] and “binds” in assay [4].
